Patent US20050085420A1, “Method of modulating apoptosis and compositions thereof” (priority 2003, published 2005)
Where a chain is given by its changes, count along the chain named. Names and notes keep the numbering of the source.

Experiments:
MEFs = assay: G418 selection of mouse embryonic fibroblasts; format: cell-based; conditions: 0.3 mg/ml G418, 3 days
Experimental: vdac1 -/- and vdac2 -/- embryonic stem (ES) cells were described previously S. Wu, M. J. Sampson, W. K. Decker, W. J. Craigen, Biochim Biophys Acta 1452, 68-78. (1999). 129/SvEv derived ES cell clones with homozygous deletion of vdac2 alleles were microinjected into blastocysts from C57BL/6 female mice. Mouse embryonic fibroblasts derived from E13.5 day chimeric embryos were treated with 0.3 mg/ml G418 (GIBCO-BRL) at second passage for 5 days to select for vdac2 -/- cells. Normally, 100% of MEFs died at 3 days in the presence of 0.3 mg/ml G418. Deficiency of VDAC2 in cells following G418 selection was confirmed by an immunoblot developed with an anti-VDAC2 Ab.

BAK-X complex = biological target: T1, BAK-X complex (Mus musculus, UniProt O08734+Q60930); assay: DSS cross-linking of BAK-X complex in isolated mitochondria, anti-BAK immunoblot; format: biochemical; conditions: liver mitochondria 50 μg, 5 μl in vitro transcribed-translated mutant tBID, 30° C. 30 min
T1 construct: isolation of mitochondria (50 μg) from wild-type (wt) mouse embryonic fibroblasts (MEFs); endogenous in cells; host or cells: mitochondria from wt MEFs
T1 sequence (O08734 2-209 limits assumed): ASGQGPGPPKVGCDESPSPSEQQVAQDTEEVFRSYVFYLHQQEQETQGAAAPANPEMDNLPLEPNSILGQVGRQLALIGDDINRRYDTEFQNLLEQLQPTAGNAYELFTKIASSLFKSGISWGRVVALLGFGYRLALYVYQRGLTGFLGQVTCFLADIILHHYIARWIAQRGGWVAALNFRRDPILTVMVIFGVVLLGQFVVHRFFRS
T1 sequence (Q60930 1-295): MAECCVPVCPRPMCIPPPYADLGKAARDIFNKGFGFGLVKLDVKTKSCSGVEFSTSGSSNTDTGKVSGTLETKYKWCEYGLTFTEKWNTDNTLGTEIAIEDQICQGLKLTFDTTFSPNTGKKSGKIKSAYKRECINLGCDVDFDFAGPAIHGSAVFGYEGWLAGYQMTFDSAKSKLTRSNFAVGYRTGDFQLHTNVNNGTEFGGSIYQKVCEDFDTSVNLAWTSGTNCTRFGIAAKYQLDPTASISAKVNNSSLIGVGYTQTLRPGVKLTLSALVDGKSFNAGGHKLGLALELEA
Experimental: FIG. 1A is an illustration depicting isolation of mitochondria (50 μg) from wild-type (wt) mouse embryonic fibroblasts (MEFs). The isolated mitochondria were incubated with recombinant tBID protein (50 ng) at 30° C. for 30 min, followed by treatment with the cross-linkers disuccinimidyl suberate (DSS) (10 mM) or bismaleimidohexane (BMH) (10 mM) at room temperature for 30 minutes. Higher order BAK complexes were identified by immunoblot developed with an anti-BAK antibody.
FIG. 1C is an illustration depicting treatment of mitochondria (50 μg) isolated from mouse liver, Bal17, Jurkat, and FL5.12 cells with 50 ng tBID protein at 30° C. for 30 min, followed by DSS cross-linking. The BAK-X complex was detected by an immunoblot developed with anti-BAK antibody.
FIG. 1E is a photograph depicting isolated liver mitochondria (50 μg) which were incubated with 5 μl of in vitro transcribed-translated wt or mutant tBID at 30° C. for 30 min, followed by DSS cross-linking. The BAK-X complex was detected by an immunoblot developed with anti-BAK antibody. […]
Protein crosslinkers were used to search for a candidate protein that interacts with BAK at the mitochondria in viable cells. A ˜60 kD mobility-shifted complex immunoreactive with an antibody (Ab) to BAK was detected after treatment of purified mitochondria (FIG. 1A) or viable whole cells (FIG. 1B) with the crosslinker disuccinimidyl suberate (DSS). […]

VDAC2 = biological target: T2, VDAC2 (Mus musculus, UniProt Q60930); assay: Anti-HA immunoprecipitation of HA-tagged VDAC2 with BH3-only molecules; format: binding; conditions: mitochondria, anti-HA immunoprecipitation, 1% CHAPS (or 0.2% NP40)
T2 construct: expressed in transfected cells; host or cells: vdac1 -/-, vdac3 -/- mouse fibroblasts; wt or vdac2 -/- MEFs; Bax, Bak doubly deficient MEFs (retrovirus pMIG)
T2 sequence (Q60930 1-295): T1 sequence (Q60930 1-295)
Excerpt: Murine vdac1, vdac2, N-terminal HA-tagged vdac2, N-terminal-HA tagged Bax or Bak, as well as wild type and mutant Bak (mBH1, W122A, G123E, R124A; mBH3, L75E) were cloned into the retroviral expression vector MSCV-IRES-GFP (pMIG). PcDNA3-tBID (wt and mutants) was described previously M. C. Wei et al., Genes Dev 14, 2060-71. (2000). Generation of amphotropic retroviruses and retroviral infection were described previously E. H. Cheng et al., Mol Cell 8, 705-11. (2001). Retroviral expression of each indicated protein was confirmed by immunoblot. […]
The strength of association between BIM-EL and VDAC2 was compared to the strength of the association, if any, between BIM-EL and BAK or BAX. Mitochondria isolated from Bax, Bak doubly deficient MEFs transduced with retrovirus expressing N-terminal HA-tagged BAX, BAK, or VDAC2 were solubilized in 1% CHAPS or 0.2% NP-40 buffer, followed by anti-HA immunoprecipitation. The immunoprecipitates were analyzed by an immunoblot developed with anti-BIM. […] These findings indicate that BH3-only competition for VDAC2 frees BAK, which, in the absence of its specific inhibitor VDAC2, is prone to auto-activating homo-oligomerization. […]

[1] = biological target: BCL-XL (in Bax, Bak doubly deficient MEFs) (mouse, UniProt Q64373-1 1-233); assay: anti-HA co-immunoprecipitation in 1% CHAPS
BCL-XL (in Bax, Bak doubly deficient MEFs), sequence (Q64373 whole entry): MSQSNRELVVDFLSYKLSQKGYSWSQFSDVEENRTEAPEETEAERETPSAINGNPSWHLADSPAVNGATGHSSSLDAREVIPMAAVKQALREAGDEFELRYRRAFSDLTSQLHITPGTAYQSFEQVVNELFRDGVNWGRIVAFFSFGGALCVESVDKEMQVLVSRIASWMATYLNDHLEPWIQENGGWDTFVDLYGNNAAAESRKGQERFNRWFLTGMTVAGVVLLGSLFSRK

[2] = biological target: T3, N-terminal HA-tagged VDAC2 (murine, UniProt Q60930 1-295); assay: anti-HA immunoprecipitation in 1% CHAPS from Bax, Bak doubly deficient MEF mitochondria before or after etoposide, anti-PUMA immunoblot (FIG. 11B)
T3 construct: also called HA-VDAC2; hemagglutinin (HA)-tagged version of VDAC2; not shown: N-terminal HA tag
T3 sequence (looked up): T1 sequence (Q60930 1-295)
Experimental: For FIG. 11A, mitochondria isolated from vdac1 -/-, vdac3 -/- mouse fibroblasts with or without retroviral transduction of N-terminal HA-tagged VDAC2 were incubated with in vitro transcribed, translated PUMA protein at 30° C. for 30 min, followed by anti-HA immunoprecipitation in 1% CHAPS buffer. The immunoprecipitates were analyzed by an immunoblot developed with anti-PUMA. For FIG. 11B, mitochondria were isolated from Bax, Bak doubly deficient MEFs with or without retroviral transduction of N-terminal HA-tagged VDAC2 before or after etoposide treatment (10 μM) for 20 hours, followed by anti-HA immunoprecipitation in 1% CHAPS buffer. The immunoprecipitates were analyzed by an immunoblot developed with anti-PUMA (FIG. 11B, lower panel).

[3] = biological target: T4, VDAC2 (endogenous, or untagged murine vdac2 re-expressed by retrovirus) (murine, UniProt Q60930 1-295); assay: restatement of the co-immunoprecipitation result
T4 construct: In mitochondria or whole cells; also called Voltage-Dependent Anion Channel 2; protein X
T4 sequence (looked up): T1 sequence (Q60930 1-295)

VDAC1 (endogenous) = VDAC1 (endogenous) (mouse, UniProt Q60932-2 2-283, limits assumed); assay: DSS crosslinking of vdac2-deficient ES cells, anti-BAK immunoblot
VDAC1 (endogenous), sequence (Q60932 15-296 limits assumed): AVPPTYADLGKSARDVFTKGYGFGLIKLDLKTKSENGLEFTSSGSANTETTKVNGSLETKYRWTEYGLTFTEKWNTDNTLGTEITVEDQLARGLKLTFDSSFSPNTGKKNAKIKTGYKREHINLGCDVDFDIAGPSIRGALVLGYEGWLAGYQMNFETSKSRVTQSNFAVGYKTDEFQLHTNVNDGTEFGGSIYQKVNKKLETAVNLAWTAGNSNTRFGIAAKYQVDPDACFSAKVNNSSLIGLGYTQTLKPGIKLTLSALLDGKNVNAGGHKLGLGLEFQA

[4] = biological target: the molecule itself; assay: Superdex 200 gel filtration of mitochondrial lysates in 2% CHAPS, anti-BAK immunoblot
Experimental: The chromatographic step of Superdex 200 (HR 10/30, Amersham-Pharmacia) was performed on an automatic fast protein liquid chromatography (FPLC) station (Amersham-Pharmacia) at 4° C. The column was equilibrated with buffer containing 2% CHAPS, 300 mM NaCl, 0.2 mM DTT, and 25 mM Hepes, pH 7.5 and calibrated with thyroglobulin (669 kD, Amersham-Pharmacia), ferritin (440 kD, Amersham-Pharmacia), catalase (232 kD, Amersham-Pharmacia), aldolase (158 kD, Amersham-Pharmacia), bovine serum albumin (66 kD, Calbiochem), and cytochrome c (14 kD, Sigma). 200 μl of mitochondrial lysates (1 mg/ml protein in the same buffer as above) was loaded onto the column, eluted at a flow rate of 0.3 ml/minute. Fractions of 0.6 ml were collected, precipitated by trichloroacetic acid, and analyzed by an immunoblot (fractions 16-31) developed with an anti-BAK Ab.

[5] = biological target: T4, VDAC2 (endogenous, or untagged murine …); assay: DSS crosslinking of reconstituted Bax, Bak doubly-deficient MEFs, anti-BAK immunoblot
[6] = biological target: T3, N-terminal HA-tagged VDAC2; assay: anti-HA immunoprecipitation in 1% CHAPS or 0.2% NP40, anti-BIM immunoblot
Excerpt: Mitochondria isolated from wild-type MEFs or vdac2 -/- mouse embryonic fibroblasts (MEFS) with retroviral transduction of N-terminal HA-tagged VDAC2 were solubilized in either 1% CHAPS or 0.2% NP40 buffer, followed by anti-HA immunoprecipitation.

CN[C@@H]1[C@@H](O)[C@@H](O[C@@H]2[C@@H](O)[C@H](O[C@H]3O[C@H]([C@@H](C)O)[C@@H](O)[C@H](O)[C@H]3N)[C@@H](N)C[C@H]2N)OC[C@]1(C)O [G418]
MEFs died (MEFs): 100%

B1: mutant tBID mIII.4 (G94E) (other, UniProt P70444 60-195, looked up)
chain: GSQASRSFNQGRIEPDSESQEEIIHNIARHLAQIEDEMDHNIQPTLVRQLAAQFMNGSLSEEDKRNCLAKALDEVKTAFPRDMENDKAMLIMTMLLAKKVASHAPSLLRDVFHTTVNFINQNLFSYVRNLVRNEMD
notes: domain: p15 tBID; also called m111.4 mutant; m l 11.4
dissociation of the BAK-X complex by mutant tBID (BAK-X complex): not | interaction with HA-tagged VDAC2 (co-immunoprecipitation) (VDAC2): did not recognize VDAC2

B2: N-terminal HA-tagged BAK (other, murine, UniProt O08734 1-209, looked up)
chain: MASGQGPGPPKVGCDESPSPSEQQVAQDTEEVFRSYVFYLHQQEQETQGAAAPANPEMDNLPLEPNSILGQVGRQLALIGDDINRRYDTEFQNLLEQLQPTAGNAYELFTKIASSLFKSGISWGRVVALLGFGYRLALYVYQRGLTGFLGQVTCFLADIILHHYIARWIAQRGGWVAALNFRRDPILTVMVIFGVVLLGQFVVHRFFRS
notes: also called HA-BAK; not shown: N-terminal HA tag
binding result [1]: no binding

B3: PUMA (endogenous, induced by etoposide) (other, mouse, UniProt Q99ML1 1-193, looked up)
chain: MARARQEGSSPEPVEGLARDSPRPFPLGRLMPSAVSCSLCEPGLPAAPAAPALLPAAYLCAPTAPPAVTAALGGPRWPGGHRSRPRGPRPDGPQPSLSPAQQHLESPVPSAPEALAGGPTQAAPGVRVEEEEWAREIGAQLRRMADDLNAQYERRRQEEQHRHRPSPWRVMYNLFMGLLPLPRDPGAPEMEPN
notes: also called induced PUMA
interaction with HA-tagged VDAC2 (co-immunoprecipitation) (VDAC2): stable interaction | binding result [2]: binds

B4: BAK (endogenous, or wild type Bak reconstituted by retrovirus) (other, murine, UniProt O08734 2-209, looked up)
chain: T1 sequence (O08734 2-209 limits assumed)
notes: Integral mitochondrial membrane protein, tested in mitochondria or whole cells; also called endogenous BAK; wt Bak
binding result [3]: binds | binding result (VDAC1 (endogenous)): no binding | binding result [4]: binds

B5: mutant Bak mBH3 (L75E) (other, murine, UniProt O08734 2-209, looked up)
chain: T1 sequence (O08734 2-209 limits assumed) with L75E
notes: also called BAK mutated within the BH3 domain (L75E)
binding result [5]: no binding

B6: BIM-EL (endogenous) (other, mouse, UniProt O54918-1 1-196, looked up)
chain: MAKQPSDVSSECDREGGQLQPAERPPQLRPGAPTSLQTEPQGNPDGEGDRCPHGSPQGPLAPPASPGPFATRSPLFIFVRRSSLLSRSSSGYFSFDTDRSPAPMSCDKSTQTPSPPCQAFNHYLSAMASIRQSQEEPEDLRPEIRIAQELRRIGDEFNETYTRRVFANDYREAEDHPQMVILQLLRFIFRLVWRRH
notes: also called BH3-only molecule BIM-EL
binding result [6]: binds
